Data on one variant can be found in IntAct's records for PubMed 17157260.

B1: Protein YNG1 (Saccharomyces cerevisiae), Q08465 (parent)
chain: MEHLANENSDSDIRYSFLSTLDHLPCELIRSLRLMQTIDLFKNEEDEPGMERACRDLLLVATYINDLVDDQIHFLKQHKKELEIQKSVTKNFNSSLENIKSKLTLEEPGAYKEPKLLLKINLKKAKSRERKESITSPTIGINQGDVTEGNNNQEEVYCFCRNVSYGPMVACDNPACPFEWFHYGCVGLKQAPKGKWYCSKDCKEIANQRSKSKRQKRRK

Variants of B1 are the subject of the test. Particulars: with h3_yeast HHT1, P61830.
As for W180E, the “effect of a mutation on the interaction” value is on record as “decreasing interaction”.
